In patent US20110053865A1:
Where two headings read alike, the source gives them in different places. Values belong to the binder of their own block, whether it stands above or below them.

Experiments:
[1] = biological target: recombinant human IL-23 (p19/p40) (human) (UniProt Q9NPF7); assay: cell-based or functional assay
[2] = biological target: cynomolgus IL-23 (cynomolgus); assay: cell-based or functional assay
[3] = biological target: recombinant human IL-23 (p19/p40) (human) (UniProt Q9NPF7); assay: cell-based or functional assay; remark: listed apart in the source
[4] = biological target: cynomolgus IL-23 (cynomolgus); assay: cell-based or functional assay; remark: listed apart in the source
[5] = biological target: recombinant human IL-23 (p19/p40) (human) (UniProt Q9NPF7); assay: inhibition ELISA, hIL-23/hIL-23R-Fc
[6] = biological target: native human IL-23 (supernatant of SAC-stimulated THP-1 cells) (human) (UniProt Q9NPF7); assay: cell-based or functional assay
native human IL-23 (supernatant of SAC-stimulated THP-1 cells) (human), sequence (Q9NPF7 20-189, chain 1 of 2): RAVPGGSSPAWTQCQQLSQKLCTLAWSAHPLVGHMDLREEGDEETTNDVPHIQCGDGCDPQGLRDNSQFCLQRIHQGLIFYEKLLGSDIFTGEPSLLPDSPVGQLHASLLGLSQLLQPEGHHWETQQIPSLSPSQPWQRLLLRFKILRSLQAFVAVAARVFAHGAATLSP
native human IL-23 (supernatant of SAC-stimulated THP-1 cells) (human), sequence (P29460 23-328, chain 2 of 2, further chain): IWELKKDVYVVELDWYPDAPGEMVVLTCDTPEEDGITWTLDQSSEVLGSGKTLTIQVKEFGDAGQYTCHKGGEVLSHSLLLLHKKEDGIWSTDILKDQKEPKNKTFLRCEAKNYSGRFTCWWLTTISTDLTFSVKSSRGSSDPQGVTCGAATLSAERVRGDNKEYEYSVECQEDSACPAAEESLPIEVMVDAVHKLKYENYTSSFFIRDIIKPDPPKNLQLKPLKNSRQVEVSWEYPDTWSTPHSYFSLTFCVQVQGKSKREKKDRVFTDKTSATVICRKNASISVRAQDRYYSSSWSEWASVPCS

recombinant human IL-23 (p19/p40) (human), sequence (Q9NPF7 20-189 limits assumed, chain 1 of 2): as the sequence (Q9NPF7 20-189, chain 1 of 2) above
recombinant human IL-23 (p19/p40) (human), sequence (P29460 23-328 limits assumed, chain 2 of 2, further chain): as the sequence (P29460 23-328, chain 2 of 2, further chain) above

B1: P23IL37D5-15GS-ALB1-15GS-20B11 (bispecific antibody, part only; not given: anti-albumin Nanobody and linkers, not shown: small tags and cut ends)
chain, part: EVQLVESGGGLVQPGGSLRLSCAASGFTLDYLAIGWFRQAPGKEREGVSCVSSSGQYTYYADSVKGRFTISRDNAESTVYLQMNSLKPEDTAVYYCATDPECYRVRGYYNGEYDYWGQGTQVTVSSEVQLVESGGGLVQAGGSLRLSCAVSGDTFSVYGMGWFRQAPGMEREFVAGISWNAGITAYTDTLKGRFTISRDRAKNTMYLQMNSLQPEDTAVYYCAADVTRHYIATRSKVDASMYDYWGQGTQVTVSS
IC50, splenocyte assay, 19 pM hIL-23 [1]: 5.77 pM | IC50, splenocyte assay, 3.8 pM cIL-23 [2]: 5.75 pM

B2: P23IL119A3-9GS-ALB1-9GS-81G2 (bispecific antibody, part only; not given: anti-albumin Nanobody, part only)
chain, part: EVQLVESGGGLVQAGGSLRLSCAASGRIFSLPASGNIFNLLTIAWHRQAPGMQRELVATINSGSRTNYADSVKGRFTISRDNAQKTVYLQMNNLKPEDTAVYYCQTSGSGSPNFWGQGTQVTVSSGGGGSGGGSGGGGSGGGSEVQLVESGGGLVQPGGSLRLSCIASGLPFSTKSMGWFRQAPGKEREFVARISPGGTSRYYGDFVKGRFAISRDNAKNTTWLQMNSLKAEDTAVYYCASGERSTYIGSNYYRTNEYDYWGTGTQVTVSS
IC50, splenocyte assay, 19 pM hIL-23 [1]: 4 pM | IC50, splenocyte assay, 3.8 pM cIL-23 [2]: 3 pM

B3: P23IL119A3-9GS-ALB1-9GS-81A12 (bispecific antibody, part only; not given: anti-albumin Nanobody, part only)
chain, part: EVQLVESGGGLVQAGGSLRLSCAASGRIFSLPASGNIFNLLTIAWHRQAPGMQRELVATINSGSRTNYADSVKGRFTISRDNAQKTVYLQMNNLKPEDTAVYYCQTSGSGSPNFWGQGTQVTVSSGGGGSGGGSGGGGSGGGSEVQLVESGGGLVQAGGSLRLSCAASGRTLSSYAMGWFRQAPGKEREFVARISQGGTAIYYADSVKGRFTISRDNAKNTVYLQMNSLKPEDTAVYYCAKDPSPYYRGSAYLLSGSYDSWGQGTQVTVSS
IC50, splenocyte assay, 19 pM hIL-23 [1]: 2.5 pM | IC50, splenocyte assay, 3.8 pM cIL-23 [2]: 3.3 pM

B6: P23IL37D5-9GS-ALB1-9GS-20B11 (bispecific antibody, part only; not given: anti-albumin Nanobody, part only)
chain, part: EVQLVESGGGLVQPGGSLRLSCAASGFTLDYLAIGWFRQAPGKEREGVSCVSSSGQYTYYADSVKGRFTISRDNAESTVYLQMNSLKPEDTAVYYCATDPECYRVRGYYNGEYDYWGQGTQVTVSSGGGGSGGGSGGGGSGGGSEVQLVESGGGLVQAGGSLRLSCAVSGDTFSVYGMGWFRQAPGMEREFVAGISWNAGITAYTDTLKGRFTISRDRAKNTMYLQMNSLQPEDTAVYYCAADVTRHYIATRSKVDASMYDYWGQGTQVTVSS
IC50, BAF3 proliferation assay, 76 pM hIL-23 [1]: 19.5 pM | IC50, splenocyte assay, 19 pM native hIL-23 (Expt 3) [6]: 12 pM

B7: P23IL20B11-9GS-ALB1-9GS-37D5 (bispecific antibody, part only; not given: anti-albumin Nanobody, part only)
chain, part: EVQLVESGGGLVQAGGSLRLSCAVSGDTFSVYGMGWFRQAPGMEREFVAGISWNAGITAYTDTLKGRFTISRDRAKNTMYLQMNSLQPEDTAVYYCAADVTRHYIATRSKVDASMYDYWGQGTQVTVSSGGGGSGGGSGGGGSGGGSEVQLVESGGGLVQPGGSLRLSCAASGFTLDYLAIGWFRQAPGKEREGVSCVSSSGQYTYYADSVKGRFTISRDNAESTVYLQMNSLKPEDTAVYYCATDPECYRVRGYYNGEYDYWGQGTQVTVSS
IC50, splenocyte assay, 19 pM hIL-23 [1]: 4.47 pM | IC50, splenocyte assay, 3.8 pM cIL-23 [2]: 8.59 pM

B9: P23IL37D5-9GS-ALB1 (bispecific antibody, part only; not given: anti-albumin Nanobody, part only)
chain, part: EVQLVESGGGLVQPGGSLRLSCAASGFTLDYLAIGWFRQAPGKEREGVSCVSSSGQYTYYADSVKGRFTISRDNAESTVYLQMNSLKPEDTAVYYCATDPECYRVRGYYNGEYDYWGQGTQVTVSSGGGGSGGGS
IC50 [5]: 37 pM | IC50, splenocyte assay, 19 pM hIL-23 [1]: 29.8 pM | IC50, splenocyte assay, 19 pM native hIL-23 (Expt 3) [6]: 60 pM | IC50, splenocyte assay, 3.8 pM cIL-23 [2]: 419 pM

Further lines, results first:

IC50, splenocyte assay, 19 pM hIL-23 [1]: 39 pM
B4: P23IL-121A2-9GS-ALB1-9GS-119G7 (bispecific antibody, part only; not given: anti-albumin Nanobody, part only)
chain, part: EVQLVESGGGLVQAGGSLRLSCAASGSIFNFNYMGWFRQAPGKEREFVAAIRWSGSSTYYADSVKGRFTISRDDAKNTVALQMNSLKPEDTAIYYCALRKGIPYSTSDRVIKGVNDYDYWGQGTQVTVSSGGGGSGGGSGGGGSGGGSEVQLVESGGGLVQAGGSLTLSCAVSGLTFNNYAMGWFRQVPGKEREFVAAISRSGLRTFYSDSVKGRFTISRDSAKSTVYVQMNNLKPEDTAVYFCAADRRTYYSEGPSLTDTLRYDYWGQGTQVTVSS

IC50, splenocyte assay, 19 pM hIL-23 [3]: 3.6 pM | IC50, splenocyte assay, 3.8 pM cIL-23 [4]: 5.4 pM | IC50 [5]: 23 pM | IC50, BA/F3 proliferation assay, 76 pM hIL-23 [1]: 49 pM | IC50, splenocyte assay, 19 pM hIL-23 [1]: 4.6 pM | IC50, splenocyte assay, 3.8 pM cIL-23 [2]: 6.7 pM
B5: P23IL119A3V16-9GS-ALB8-9GS-81A12V4 (bispecific antibody, part only; not given: anti-albumin Nanobody, part only)
chain, part: EVQLLESGGGLVQPGGSLRLSCAASGRIFSLPASGNIFNLLTIAWYRQAPGKGRELVATINSGSRTYYADSVKGRFTISRDNSKKTLYLQMNSLRPEDTAVYYCQTSGSGSPNFWGQGTLVTVSSGGGGSGGGSGGGGSGGGSEVQLLESGGGLVQPGGSLRLSCAASGRTLSSYAMGWFRQAPGKGREFVSRISQGGTAIYYADSVKGRFTISRDNSKNTLYLQMNSLRPEDTAVYYCAKDPSPYYRGSAYLLSGSYDSWGQGTLVTVSS

IC50, splenocyte assay, 19 pM hIL-23 [1]: 8 pM
B8: P23IL-121A2-9GS-ALB1-9GS-81G2 (bispecific antibody, part only; not given: anti-albumin Nanobody, part only)
chain, part: EVQLVESGGGLVQAGGSLRLSCAASGSIFNFNYMGWFRQAPGKEREFVAAIRWSGSSTYYADSVKGRFTISRDDAKNTVALQMNSLKPEDTAIYYCALRKGIPYSTSDRVIKGVNDYDYWGQGTQVTVSSGGGGSGGGSGGGGSGGGSEVQLVESGGGLVQPGGSLRLSCIASGLPFSTKSMGWFRQAPGKEREFVARISPGGTSRYYGDFVKGRFAISRDNAKNTTWLQMNSLKAEDTAVYYCASGERSTYIGSNYYRTNEYDYWGTGTQVTVSS
